Assay [1] concerns the target recombinant CBP-HMGB1 (rat HMGB1 with a calmodulin-binding peptide tag) (rat) (UniProt P63159). As to the kind of experiment: OpenSPR; TN or HMGB1 on the chip (His-tag or carboxyl groups); this end taken as HMGB1 on chip, TN applied (inferred, since 2.88 nM is tied to the TN chip at paragraph 223).
Assay [2] has the same target. As to the kind of experiment: OpenSPR; HMGB1 immobilized on the chip, TN applied at 280, 93, 31 and 10 (no unit on the sheet) [A) upper panel].
The target of assay [3] is recombinant human tetranectin (TN), residue 22-202 with a C-terminal histidine tag (human) (UniProt P05452). Briefly: OpenSPR; TN chip with against without mAb8 (29.6 nM) pre-treatment.
Assay [4] shares this target. As to the kind of experiment: OpenSPR; TN on the chip, HMGB1 applied (FIG. 5A, Lower Panel, per paragraph 223).
For assay [5] the target is unchanged. As to the kind of experiment: OpenSPR; TN immobilized on the chip, HMGB1 applied at 400, 200, 100 and 25 (no unit on the sheet) [A) lower panel].
Assay [6] shares this target. Briefly: OpenSPR; TN chip pre-treated with mAb8 (29.6 nM), HMGB1 at various concentrations.
For assay [7] the target is unchanged. Briefly: OpenSPR; TN chip pre-treated with mAb8 (29.6 nM), HMGB1 200 nM.
Assay [8] shares this target. Briefly: OpenSPR; TN chip, HMGB1 200 nM, without mAb8 pre-treatment.

pKd: −log10 of the molar value.

recombinant CBP-HMGB1 (rat HMGB1 with a calmodulin-binding peptide tag) (rat), sequence (P63159 whole entry, form in doubt): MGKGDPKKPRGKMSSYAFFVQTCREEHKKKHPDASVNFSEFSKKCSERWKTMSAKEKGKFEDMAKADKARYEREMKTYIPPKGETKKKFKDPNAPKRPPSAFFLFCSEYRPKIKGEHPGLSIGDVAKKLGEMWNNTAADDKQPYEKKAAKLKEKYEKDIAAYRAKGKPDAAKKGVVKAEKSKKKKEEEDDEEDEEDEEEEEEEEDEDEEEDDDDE

Regarding “recombinant human tetranectin (TN), residue 22-202 with a C-terminal histidine tag (from UniProt P05452 22-202)”, the pKd (commonly the Kd on a negative log10 scale, so that one unit is a factor of ten) in assay [1] is 8.54 to 8.92; in assay [2] it was 8.92.

In the case of “recombinant CBP-HMGB1 (rat HMGB1 with a calmodulin-binding peptide tag) (from UniProt P63159 1-215)”, the fold increase of KD in assay [3] worked out at 6 fold. Moreover, the pKd is 8.54 to 8.92 in assay [4], 8.54 in assay [5] and 7.73 in assay [6]. Further, the SPR response signal in assay [7] is 35 AU; in assay [8] it was 150 AU.

The values above are taken from patent US20220281962A1.
